Laboratory results: publication PMC11025796

Tests used:
[1] = target: HrGH45, endogenous glycosylated GH45 endo-1,4-β-D-glucanase from the red abalone (Haliotis rufescens) (Haliotis rufescens); assay: SEC; calibrated gel filtration on an Agilent Bio SEC-3 HPLC column; 0.1 mg/mL HrGH45 in buffer A (50 mM sodium acetate pH 6.0, 200 mM NaCl, 1 mM EDTA, 0.05% NaN3), 1 mL/min; mass in solution compared with the MALDI-TOF mass of the monomer
[2] = target: HrGH45, endogenous glycosylated GH45 endo-1,4-β-D-glucanase from the red abalone (Haliotis rufescens) (Haliotis rufescens); assay: zymography (SDS-PAGE without reducing agent or heating, in-gel cellulase activity); 12% SDS-PAGE gel with 0.1% (w/v) CMC in the resolving phase, sample not reduced and not heated; Triton X-100 wash, overnight at 37°C in buffer A, Congo red stain; a second gel stained with Coomassie

stoichiometry N [1]: 3
stoichiometry N [2]: 3
Substance: HrGH45, endogenous glycosylated GH45 endo-1,4-β-D-glucanase from the red abalone (Haliotis rufescens) (enzyme)
